Assay results taken from the DeepSol protein solubility set.

Assay: soluble on expression in E. coli; label from the status in PepcDB or PDB records
In the case of “MGSDKIHHHHHHMTHEEHHAAKTLGIGKAIAVLTSGGDAQGMNAAVRAVVRVGIFTGARVFFVHEGYQGLVDGGDHIKEATWESVSMMLQLGGTVIGSARCKDFREREGRLRAAYNLVKRGITNLCVIGGDGSLTGADTFRSEWSDLLSDLQKAGKITDEEATKSSYLNIVGLVGSIDNDFCGTDMTIGTDSALHRIMEIVDAITTTAQSHQRTFVLEVMGRHCGYLALVTSLSCGADWVFIPECPPDDDWEEHLCRRLSETRTRGSRLNIIIVAEGAIDKNGKPITSEDIKNLVVKRLGYDTRVTVLGHVQRGGTPSAFDRILGSRMGVEAVMALLEGTPDTPACVVSLSGNQAVRLPLMECVQVTKDVTKAMDEKKFDEALKLRGRSFMNNWEVYKLLAHVRPPVSKSGSHTVAVMNVGAPAAGMNAAVRSTVRIGLIQGNRVLVVHDGFEGLAKGQIEEAGWSYVGGWTGQGGSKLGTKRTLPKKSFEQISANITKFNIQGLVIIGGFEAYTGGLELMEGRKQFDELCIPFVVIPATVSNNVPGSDFSVGADTALNTICTTCDRIKQSAAGTKRRVFIIETMGGYCGYLATMAGLAAGADAAYIFEEPFTIRDLQANVEHLVQKMKTTVKRGLVLRNEKCNENYTTDFIFNLYSEEGKGIFDSRKNVLGHMQQGGSPTPFDRNFATKMGAKAMNWMSGKIKESYRNGRIFANTPDSGCVLGMRKRALVFQPVAELKDQTDFEHRIPKEQWWLKLRPILKILAKYEIDLDTSDHAHLEHITRKRSGEAAV”, the “soluble on expression in E. coli” value is reported as “not soluble”.
For “MGSDKIHHHHHHMTIDPIKSTTLAQFDAAEQTALAQLALKVQHAFVTGAGGFLGKAICLRLLAAGIKVTGFARGHYPELEALGVVMLQGDLVNKDQLQQAMQGCDIVFHVASKAGVWGDRDSYFCPNVKGAANVIAACKTLKINKLVYTSTPSVTFAGQDESGIDESTPYATSFLNYYAHSKAIAEKMMLDANQVGDVSVENTAVTQVTQVTQATTATISDNNLATTQVAIPNTSQVTAPYALKTVALRPHLIWGPGDPHLVPRVLARCRLDKLKLVGHEDKLVDTIYIDNAAYAHVLAALELCQAKPKCQGKAYFLSNDEPITMAKMLNLILACDALPPVTKRVPQSVAYVAGAVLETVYFLLKKQEEPMMTRFVARQLSCSHYFDISAAKRDLGYRALVSINEGMARLKASL”, the “soluble on expression in E. coli” value was “not soluble”.
With “MGSDKIHHHHHHMTIGLSCNALKYGGGLERYAIDLARGLADAGVRPLVFARSFDSSVPEYQCVEPRRINVSFLPGKCRDAWFSWRLRAARRAAPVDVLIGCNRVDSSDIAICGGTHLGFLDAIGRMPTFSDRRQIALERRQYARARFVVAHSMLMRDELRRFYGLSDDKIRVLFPPVDAARFTPVDAVRRAELRTRFGFADDEVVLLFPSSSHERKGLPLIEAILRDAGPRVVVAVAGRPPERTSERLRYVGYVKDIEDGYRAADFTILASKYEPFGLVGVESVMCGTPVILPSNIGCCDAIAPSAKLVFAPGDAAGLRGMLDEAVRRVRAGAVRVESGAAARAAIQYDPSVARHVAQLLDLAAEAASDRRNGGR” the “soluble on expression in E. coli” value was “not soluble”.
With “MGSDKIHHHHHHMTIMSIGIIIASHGEFAAGIHQSGSMIFGEQEKVQVVTFMPNEGPDDLYAKFNNAVAAFDAEDEVLVLADLWSGSPFNQASRVMGENPERKFAIITGLNLPMLIQAYTERLMDAAAGVEKVAANIIKEAKDGIKALPEELNPVEEVASAAAAPVAQTAIPEGTVIGDGKLKINLARLDTRLLHGQVATAWTPDSKANRIIVASDNVAKDDLRKELIKQAAPGNVKANVVPIQKLIEISKDPRFGETHALILFETPQDALRAIEGGVPIKTLNVGSMAHSTGKTLVNTVLSMDKEDVATFEKMRDLGVEFDVRKVPNDSKKDLFDLINKANVK” the “soluble on expression in E. coli” value was “not soluble”.
With “MGSDKIHHHHHHMTKDQQNIERGSVINVEILNAAHGGQGIAKYDGRVIFVKGAFPGDRLSANITHVKKKFARATIASIEMPSPLRMQQRCLAAANGAGCCDFGEFDPEIEGRYKADLVLEQLERLGKVSQPPTCEVVSFGSPTQWRTRMRLGVDAQGRAGGFASQSREVVSGVPCSQGVMGLLDGIVGAEQNVLRFTPGSQVVVVCDDLGQRTVVETQPAPRGKRTESMVKVVEGTGKVSQVVDGVTFELPATGFWQSHKDAAQAYADTIREWFGSLIIRNTDSSLVAWDLYGGCGSFASAILSAVDNHGVVHCVESAPAAVSAGKRALSQLVEDQKIVFHTETVERAMNQLPAPTLVVLDPPRVGAGAETVRAIAQSGPQAAIHIGCDPATFARDIAEWSRNGFILEKLRVFDAFPGTHHCETIGLLTKKN” the “soluble on expression in E. coli” value was “not soluble”.
With “MGSDKIHHHHHHMTKILIVLSEWGYWGEELVGPLETFDAAGYQVDFATPNGKRPVALGVSMDPTFVDPPLGRPVTTQDMADKVRQLDDTNNPRLNNPKNLREWLPERPYWSSPKFLREMEEYYRLLDEVRQRDLQTYDAILIVGGSGPMVDLADNQRVHDLILSFYQMGKPVAAECYGVACLAFARDIGDRKSIIWGKHVTGHCLEYDYKDGTGFNGTNIDPCLNNINFGTPFYPLEYILRDATGPDGQYHGNVGRPTSVIVDYPFITGRSTPDSYLTGQKLVEVLEKGLKRYGW” the “soluble on expression in E. coli” value was “not soluble”.
With “MGSDKIHHHHHHMTKITVLSGKGGTGKTTVSVNMAKALSESYRVQLLDADVEEPNDHIFFNVDVSFEEPVHLMIPVVDNSVCIRCGECASTCQFGAISVFPSGTFVFESLCHGCGACSIMCPVNAISERPKEIGKIRFGTADGNISFGMGILNIGERTGVPVIRKLKKHIDEKADVVIVDAPPGTSCPVVESLRNTDFALLVTEPTAFGLHDLKLAVELTKEMGIPSGIVVNRYIPGNTIIEEFADEEGIPVLLKIPFKREIASLCAEGKLIVEAFQDMKKDFLELFEKIEVMVR” the “soluble on expression in E. coli” value was “not soluble”.
In the case of “MGSDKIHHHHHHMTKKRIFVTGASGCIGHYISETLIQETDYELYLLVRNPSKLQVDTQIRPGITVLQGDMQNISQFADLLSTIDIAVLTATAWGGEQTFDINVSKTIELLNLLDPDRCQQVIYFSTASVLDSHNQPLKEAGEIGTDYIRSKYECLHKISELGIASKITTVFPTLVLGGDSKKPYSHLTSGIPEVTKYVNLIRFLQADGSFHFIHGKDIASVVKYLIVNPPQENTSRRLVLGQKRLTANQAIEEVCTYLGKKISFRIPLSLSLANLIIAVFRIQMADWDRFCMNYRHFTYDTVINPDSFGLPNYCATMSDVLKISGVDSSHQ”, the “soluble on expression in E. coli” value is reported as “not soluble”.
In the case of “MGSDKIHHHHHHMTKLQLKYRELKIISVIAASENISHAATVLGIAQANVSKYLADFESKVGLKVFDRTTRQLMLTPFGTALLPYINDMLDRNEQLNNFIADYKHEKRGRVTIYAPTGIITYLSKHVIDKIKDIGDITLSLKTCNLERNAFYEGVEFPDDCDVLISYAPPKDESLVASFITQYAVTAYASQRYLEKHPISRPDELEHHSCILIDSMMIDDANIWRFNVAGSKEVRDYRVKGNYVCDNTQSALELARNHLGIVFAPDKSVQSDLQDGTLVPCFQQPYEWWLDLVAIFRKREYQPWRVQYVLDEMLREIRHQLAQSQQLRPEQAAESED”, the “soluble on expression in E. coli” value is reported as “not soluble”.
For “MGSDKIHHHHHHMTKNNIAVKVDHVSKYFKLPVESTQSLRTALVNRFKGIKGYKKQHVLRDIDFEVEKGDFFGIVGRNGSGKSTLLKIISQIYVPEQGKVTVDGKLVSFIELGVGFNPELTGRENVYMNGAMLGFTTEEVDTMYQDIVDFAELQDFMNQKLKNYSSGMQVRLAFSVAIKAQGDVLILDEVLAVGDEAFQRKCNDYFLERKNSGKTTILVTHDMAAVKKYCNKAVLIDDGLIKAIGEPFDVANQYSLDNTDQIVEDKQEEEAAVQEEEQIVVDNLEVKLLSANRMTPRDSIRFEISYNVLADVGTYIALSLTDVDRNIWIYNDNSLDYLSSGSGKKRVFYECHLKSLNDIKLKLEVTVRDKQGQMLAFSSATNTPIISINRDDLEGDDKSAMDSASGLIQRNGQWQFS”, the “soluble on expression in E. coli” value was “not soluble”.
In the case of “MGSDKIHHHHHHMTLFLQKGYEETTMREIVHKSGRSKGAIYHHFSSKQEILNFQISLEMDNLRQCLDALISNNQLNAQQKFKGILTYFFENPSLTELTRLHWAEKLPFALLETLKNSLTVVAQYIEAIIQQEIKEKKLNCQYSKELSEILVLLFDIWLDPSIVDFDYQTACQRIDFIALLLEKFDLPLLDENDKNKLKNGLKHYDEKNTL”, the “soluble on expression in E. coli” value is reported as “not soluble”.
With “MGSDKIHHHHHHMTLLDRFDGGFARDGEDIIAGSRIEDARIHNRRLVFETIFQRGPISRVEISAIVGLKPQTISSITRELLEQELIVEAGRSSGLRGQPQIYLEANAEAGFSIGVHLDQNQCHILVFDLKRQERARKSMRCDTANPDVTVRMLAQTITTLLHDNALPAERIWGLGLVLPTFGSDVYDFDFSMRHWEAWRDASFAEDLQRLTGFAVLVENDGTAAAIGERLHRHDAQEASFAYFYIGHGAGAGLIIDGYPFKGVGGNAGEIGLLPILGLGANPVWPDNPSSAVQGGVLSIGGLAAACGLSEQSMDEQSILSLLERRDHRLMDWLASAASVLRDVCAVIEVMFDPGFIAVGGALPRALVERLVDRAYPLRPTPSARRDRALPRLLPATLIEDAAVTGAAMLPIFVTTSHNFRHLYFRQILADDRS” the “soluble on expression in E. coli” value was “not soluble”.
With “MGSDKIHHHHHHMTLRISQLAQKFGLSRSTLLYYEKQGLIRGRRLDNGYRVYSENDLQRLILIQKLQAGGLTLKECLACLDARIDKALLQTRLAELDADIAQKQASRTLLAALLGEGDLKAWHESLTKEAPEAHLDWLQTQGFSEKEALHLTWLSKDMNEHDKFMADFMQIFSPLTRWAPGSEADTLKALASVPLTPTRILDIGCGKGLATRMLAKHTKASITAIDNEEDALTELQQHLQHRNLASRVSTLCASMTDIPLPAASADLIWAEGSAYIMGVEQALKSWRKLLVDNGVLVLSDLVWLTDDKAPEAVAFWQQDYPAMTSVEARMAQMQAAGFEVIDSFSLSNEAWKSFTGPLAARVDEVSEQLAGSQALANVQRELGIFSRFLGQFGYQFFVLQKRG” the “soluble on expression in E. coli” value was “not soluble”.
For “MGSDKIHHHHHHMTNLNEKQLITEIVGLARSQGLTVHSENAQLNETGMDFQVVFAKDDTGMPWVLRKPRRSDVVERASAEGITLAFLRANLTADVPDWRIHTPELIAYPMLKGTPAAGIDLEQKQYVWNMDHQPPSDDFVRTLADILAELHGTDQISAGQSGIEVIRPEDFRQMTADSMVDVKNKLGVSTTLWERWQKWVDDDAYWPGFSSLIHGDLHPPHILIDQNGRVTGLLDWTEAKVADPAKDFVLYQTIFGEKETARLLEYYDQAGGRIWAKMQEHISEMQAAYPVEIAKLALQTQQEEHINMALEALGVTSD”, the “soluble on expression in E. coli” value was “not soluble”.
With “MGSDKIHHHHHHMTPAQLKDELIAYSKTIGIDKIGFASADPFLTLKERLQTQQALGYQSGFEEPDIDKRVYPEKILPKARSIISIALAYPSKMKNPPKSKKGERRGVFCRASWGKDYHDILRDRLKKLEDFLLERVPDMKVLSMVDTGALSDRAVAERAGIGWSGKNCGVITPEFGSYVYLGDLVTTIPFPPDIPLTDQCGTCNKCVDACPTGALIQGGQLDSQKCIAFLTQTKGFLPEKYRKKLGNRLYGCDTCQQVCPANKGKNFHFHEEMEPDPEIAKPKLIPLLTMSNREFKEKFGHVSGSWRGKKPIQRNAILALAHFKEEAALPILADLLRQDPRPVIRGTAGWALGKIGGPEVETWLKDALKREKDEDVRAEISRGLEILAYGDSGNGKETEDSIR” the “soluble on expression in E. coli” value was “not soluble”.
With “MGSDKIHHHHHHMTQFDVLTIGNAIVDIISRCEDQFLEENGIVKGAMNLIDAERATRLYSLMGPAIEASGGSAGNTAAGIASFGGKAAYFGKVAEDELGEIFAHDIRAQGVHYQTMAKGQHPPTARCMIFVTEDGERSMNTYLGACVEFGPEDVEPEVVKQAKVTYFEGYLWDPPRAKQAIVDCARIAHEHGREMSMTLSDSFCVHRYRAEFLDLMRSGTVDIVFANRQEALALYETEDFDAALDQIAKDCKLAAVTMSEEGAMIIRGSERIHVPATTIAELVDTTGAGDLFASGFLYGYTQGRTLEECGKLGCLAAGLVIQQMGPRPLASLQEAAAEAGLI” the “soluble on expression in E. coli” value was “not soluble”.
